Experimental data as given in patent US20260242419A1, “A CYCLIC PEPTIDE FOR TRAPPING INTERLEUKIN-1 BETA” (Merck Sharp & Dohme LLC, priority 2023, published 2026).
Starred links: 1 amine or outer side, 2 acyl side, 3 side chain; linkers in the order of their positions; H or OH if unused. Non-standard residues stand in square brackets, D forms with d. 3Pal4Ph4CO2H = 4-[5-[(2S)-2-amino-2-carboxy-ethyl]-2-pyridyl]benzoic acid, O=C([C@H](Cc1ccc(-c2ccc(C(=O)[*:3])cc2)nc1)N[*:1])[*:2]; dProc3CH2Pyrim = (2R,3S)-3-(pyrimidin-5-ylmethyl)pyrrolidine-2-carboxylic acid, O=C([C@H]1[C@@H](Cc2cncnc2)CCN1[*:1])[*:2]; TyrEtNAc = (2S)-3-[4-(2-acetamidoethoxy)phenyl]-2-amino-propanoic acid, CC(=O)NCCOc1ccc(C[C@H](N[*:1])C(=O)[*:2])cc1; dProc3Bn = (2R,3S)-3-benzylpyrrolidine-2-carboxylic acid, O=C([C@H]1[C@@H](Cc2ccccc2)CCN1[*:1])[*:2]; dProc4Bn = (2R,4R)-4-benzylpyrrolidine-2-carboxylic acid, O=C([C@H]1C[C@@H](Cc2ccccc2)CN1[*:1])[*:2]; Trp(βS-Me,4-F) = C[C@@H](c1c[nH]c2cccc(F)c12)[C@H](N)C(=O)O; 3Aminoazetidine3carboxyl = O=C(C1(N[*:1])CN([*:3])C1)[*:2]; Bip(4'-COOH) = N[C@@H](Cc1ccc(-c2ccc(C(=O)O)cc2)cc1)C(=O)O; Ala(1-bicyclo(1.1.1)pentyl) = N[C@@H](CC12CC(C1)C2)C(=O)O; dPro(4R-Bzl(4-F)) = O=C(O)[C@H]1C[C@@H](Cc2ccc(F)cc2)CN1; Ala(morpholin-4-yl) = N[C@@H](CN1CCOCC1)C(=O)O; Ala(pyrimidin-5-yl) = N[C@@H](Cc1cncnc1)C(=O)O; Phe(4-COOH) = N[C@@H](Cc1ccc(C(=O)O)cc1)C(=O)O; Pro(cis-4-F) = O=C(O)[C@@H]1C[C@H](F)CN1; 4Pal = N[C@@H](Cc1ccncc1)C(=O)O; d(αMeS) = C[C@@](N)(CO)C(=O)O; αMeS = C[C@](N)(CO)C(=O)O; Dab = NCC[C@H](N)C(=O)O; Aib = CC(C)(N)C(=O)O

Each binder was assayed against Recombinant human IL-1β (BioLegend 579404) (human, UniProt P01584 117-269) (assay: cell-based or functional assay).

Binder | MRC5 IC50
cyclo([Bip(4'-COOH)][4Pal][Phe(4-COOH)]G[Pro(cis-4-F)][Trp(βS-Me,4-F)][αMeS]EW[Aib][Ala(pyrimidin-5-yl)]Q[Dab]G[dPro(4R-Bzl(4-F))]) [SEQ ID NO: 22] | 0.027 nM
cyclo([Bip(4'-COOH)][4Pal][Phe(4-COOH)]G[Pro(cis-4-F)][Trp(βS-Me,4-F)][Aib]EW[3Aminoazetidine3carboxyl][Ala(pyrimidin-5-yl)]Q[Dab]G[dPro(4R-Bzl(4-F))]) (SMILES C[C@@H](c1c[nH]c2cccc(F)c12)[C@@H]1NC(=O)[C@@H]2C[C@H](F)CN2C(=O)CNC(=O)[C@H](Cc2ccc(C(=O)O)cc2)NC(=O)[C@H](Cc2ccncc2)NC(=O)[C@H](Cc2ccc(-c3ccc(C(=O)O)cc3)cc2)NC(=O)[C@H]2C[C@@H](Cc3ccc(F)cc3)CN2C(=O)CNC(=O)[C@H](CCN)NC(=O)[C@H](CCC(N)=O)NC(=O)[C@H](Cc2cncnc2)NC(=O)C2(CNC2)NC(=O)[C@H](Cc2c[nH]c3ccccc23)NC(=O)[C@H](CCC(=O)O)NC(=O)C(C)(C)NC1=O) [SEQ ID NO: 21] | 0.04 nM
cyclo([TyrEtNAc][Ala(1-bicyclo(1.1.1)pentyl)][Phe(4-COOH)]G[Pro(cis-4-F)][Trp(βS-Me,4-F)][Aib]EW[Aib][Ala(pyrimidin-5-yl)]Q[Dab]G[dPro(4R-Bzl(4-F))]) (SMILES CC(=O)NCCOc1ccc(C[C@@H]2NC(=O)[C@H]3C[C@@H](Cc4ccc(F)cc4)CN3C(=O)CNC(=O)[C@H](CCN)NC(=O)[C@H](CCC(N)=O)NC(=O)[C@H](Cc3cncnc3)NC(=O)C(C)(C)NC(=O)[C@H](Cc3c[nH]c4ccccc34)NC(=O)[C@H](CCC(=O)O)NC(=O)C(C)(C)NC(=O)[C@H]([C@@H](C)c3c[nH]c4cccc(F)c34)NC(=O)[C@@H]3C[C@H](F)CN3C(=O)CNC(=O)[C@H](Cc3ccc(C(=O)O)cc3)NC(=O)[C@H](CC34CC(C3)C4)NC2=O)cc1) [SEQ ID NO: 25] | 0.053 nM
cyclo([Bip(4'-COOH)][4Pal][Phe(4-COOH)]G[Pro(cis-4-F)][Trp(βS-Me,4-F)][Aib]EW[Aib][Ala(pyrimidin-5-yl)]Q[Dab]G[dProc3Bn]) [SEQ ID NO: 29] | 0.019 nM
cyclo([Bip(4'-COOH)][4Pal][Phe(4-COOH)]G[Pro(cis-4-F)][Trp(βS-Me,4-F)][Aib]EW[Aib][Ala(pyrimidin-5-yl)]QSG[dPro(4R-Bzl(4-F))]) (SMILES C[C@@H](c1c[nH]c2cccc(F)c12)[C@@H]1NC(=O)[C@@H]2C[C@H](F)CN2C(=O)CNC(=O)[C@H](Cc2ccc(C(=O)O)cc2)NC(=O)[C@H](Cc2ccncc2)NC(=O)[C@H](Cc2ccc(-c3ccc(C(=O)O)cc3)cc2)NC(=O)[C@H]2C[C@@H](Cc3ccc(F)cc3)CN2C(=O)CNC(=O)[C@H](CO)NC(=O)[C@H](CCC(N)=O)NC(=O)[C@H](Cc2cncnc2)NC(=O)C(C)(C)NC(=O)[C@H](Cc2c[nH]c3ccccc23)NC(=O)[C@H](CCC(=O)O)NC(=O)C(C)(C)NC1=O) [SEQ ID NO: 3] | 0.037 nM
cyclo([3Pal4Ph4CO2H][4Pal][Phe(4-COOH)]G[Pro(cis-4-F)][Trp(βS-Me,4-F)][Aib]EW[Aib][Ala(pyrimidin-5-yl)]Q[Dab]G[dPro(4R-Bzl(4-F))]) (SMILES C[C@@H](c1c[nH]c2cccc(F)c12)[C@@H]1NC(=O)[C@@H]2C[C@H](F)CN2C(=O)CNC(=O)[C@H](Cc2ccc(C(=O)O)cc2)NC(=O)[C@H](Cc2ccncc2)NC(=O)[C@H](Cc2ccc(-c3ccc(C(=O)O)cc3)nc2)NC(=O)[C@H]2C[C@@H](Cc3ccc(F)cc3)CN2C(=O)CNC(=O)[C@H](CCN)NC(=O)[C@H](CCC(N)=O)NC(=O)[C@H](Cc2cncnc2)NC(=O)C(C)(C)NC(=O)[C@H](Cc2c[nH]c3ccccc23)NC(=O)[C@H](CCC(=O)O)NC(=O)C(C)(C)NC1=O) [SEQ ID NO: 26] | 0.035 nM
cyclo([Bip(4'-COOH)][4Pal][Phe(4-COOH)]G[Pro(cis-4-F)][Trp(βS-Me,4-F)][Aib]EW[Aib]RQSG[dPro(4R-Bzl(4-F))]) (SMILES C[C@@H](c1c[nH]c2cccc(F)c12)[C@@H]1NC(=O)[C@@H]2C[C@H](F)CN2C(=O)CNC(=O)[C@H](Cc2ccc(C(=O)O)cc2)NC(=O)[C@H](Cc2ccncc2)NC(=O)[C@H](Cc2ccc(-c3ccc(C(=O)O)cc3)cc2)NC(=O)[C@H]2C[C@@H](Cc3ccc(F)cc3)CN2C(=O)CNC(=O)[C@H](CO)NC(=O)[C@H](CCC(N)=O)NC(=O)[C@H](CCCNC(=N)N)NC(=O)C(C)(C)NC(=O)[C@H](Cc2c[nH]c3ccccc23)NC(=O)[C@H](CCC(=O)O)NC(=O)C(C)(C)NC1=O) [SEQ ID NO: 32] | 0.049 nM
cyclo([Bip(4'-COOH)][4Pal][Phe(4-COOH)]G[Pro(cis-4-F)][Trp(βS-Me,4-F)][Aib]EW[Aib][Ala(pyrimidin-5-yl)]QSG[dProc4Bn]) (SMILES C[C@@H](c1c[nH]c2cccc(F)c12)[C@@H]1NC(=O)[C@@H]2C[C@H](F)CN2C(=O)CNC(=O)[C@H](Cc2ccc(C(=O)O)cc2)NC(=O)[C@H](Cc2ccncc2)NC(=O)[C@H](Cc2ccc(-c3ccc(C(=O)O)cc3)cc2)NC(=O)[C@H]2C[C@@H](Cc3ccccc3)CN2C(=O)CNC(=O)[C@H](CO)NC(=O)[C@H](CCC(N)=O)NC(=O)[C@H](Cc2cncnc2)NC(=O)C(C)(C)NC(=O)[C@H](Cc2c[nH]c3ccccc23)NC(=O)[C@H](CCC(=O)O)NC(=O)C(C)(C)NC1=O) [SEQ ID NO: 30] | 0.026 nM

Second part, the binder after the results:

MRC5 IC50 | Binder
0.049 nM | cyclo([Bip(4'-COOH)][4Pal][Phe(4-COOH)]G[Pro(cis-4-F)][Trp(βS-Me,4-F)][Aib]EW[Aib][Ala(pyrimidin-5-yl)]Q[Ala(morpholin-4-yl)]G[dPro(4R-Bzl(4-F))]) (SMILES C[C@@H](c1c[nH]c2cccc(F)c12)[C@@H]1NC(=O)[C@@H]2C[C@H](F)CN2C(=O)CNC(=O)[C@H](Cc2ccc(C(=O)O)cc2)NC(=O)[C@H](Cc2ccncc2)NC(=O)[C@H](Cc2ccc(-c3ccc(C(=O)O)cc3)cc2)NC(=O)[C@H]2C[C@@H](Cc3ccc(F)cc3)CN2C(=O)CNC(=O)[C@H](CN2CCOCC2)NC(=O)[C@H](CCC(N)=O)NC(=O)[C@H](Cc2cncnc2)NC(=O)C(C)(C)NC(=O)[C@H](Cc2c[nH]c3ccccc23)NC(=O)[C@H](CCC(=O)O)NC(=O)C(C)(C)NC1=O) [SEQ ID NO: 24]
0.023 nM | cyclo([Bip(4'-COOH)][4Pal][Phe(4-COOH)]G[Pro(cis-4-F)][Trp(βS-Me,4-F)][Aib]EW[Aib][Ala(pyrimidin-5-yl)]QSG[dProc3Bn]) (SMILES C[C@@H](c1c[nH]c2cccc(F)c12)[C@@H]1NC(=O)[C@@H]2C[C@H](F)CN2C(=O)CNC(=O)[C@H](Cc2ccc(C(=O)O)cc2)NC(=O)[C@H](Cc2ccncc2)NC(=O)[C@H](Cc2ccc(-c3ccc(C(=O)O)cc3)cc2)NC(=O)[C@H]2[C@@H](Cc3ccccc3)CCN2C(=O)CNC(=O)[C@H](CO)NC(=O)[C@H](CCC(N)=O)NC(=O)[C@H](Cc2cncnc2)NC(=O)C(C)(C)NC(=O)[C@H](Cc2c[nH]c3ccccc23)NC(=O)[C@H](CCC(=O)O)NC(=O)C(C)(C)NC1=O) [SEQ ID NO: 28]
0.018 nM | cyclo([Bip(4'-COOH)][4Pal][Phe(4-COOH)]G[Pro(cis-4-F)][Trp(βS-Me,4-F)][Aib]EW[d(αMeS)][Ala(pyrimidin-5-yl)]Q[Dab]G[dPro(4R-Bzl(4-F))]) (SMILES C[C@@H](c1c[nH]c2cccc(F)c12)[C@@H]1NC(=O)[C@@H]2C[C@H](F)CN2C(=O)CNC(=O)[C@H](Cc2ccc(C(=O)O)cc2)NC(=O)[C@H](Cc2ccncc2)NC(=O)[C@H](Cc2ccc(-c3ccc(C(=O)O)cc3)cc2)NC(=O)[C@H]2C[C@@H](Cc3ccc(F)cc3)CN2C(=O)CNC(=O)[C@H](CCN)NC(=O)[C@H](CCC(N)=O)NC(=O)[C@H](Cc2cncnc2)NC(=O)[C@@](C)(CO)NC(=O)[C@H](Cc2c[nH]c3ccccc23)NC(=O)[C@H](CCC(=O)O)NC(=O)C(C)(C)NC1=O) [SEQ ID NO: 23]
0.098 nM | cyclo([Bip(4'-COOH)][4Pal][Phe(4-COOH)]G[Pro(cis-4-F)][Trp(βS-Me,4-F)][Aib]EW[Aib]FQSG[dProc3CH2Pyrim]) (SMILES C[C@@H](c1c[nH]c2cccc(F)c12)[C@@H]1NC(=O)[C@@H]2C[C@H](F)CN2C(=O)CNC(=O)[C@H](Cc2ccc(C(=O)O)cc2)NC(=O)[C@H](Cc2ccncc2)NC(=O)[C@H](Cc2ccc(-c3ccc(C(=O)O)cc3)cc2)NC(=O)[C@H]2[C@@H](Cc3cncnc3)CCN2C(=O)CNC(=O)[C@H](CO)NC(=O)[C@H](CCC(N)=O)NC(=O)[C@H](Cc2ccccc2)NC(=O)C(C)(C)NC(=O)[C@H](Cc2c[nH]c3ccccc23)NC(=O)[C@H](CCC(=O)O)NC(=O)C(C)(C)NC1=O) [SEQ ID NO: 27]
0.024 nM | cyclo([Bip(4'-COOH)][4Pal][Phe(4-COOH)]G[Pro(cis-4-F)][Trp(βS-Me,4-F)][Aib]EW[Aib][Ala(pyrimidin-5-yl)]Q[Dab]G[dProc4Bn]) (SMILES C[C@@H](c1c[nH]c2cccc(F)c12)[C@@H]1NC(=O)[C@@H]2C[C@H](F)CN2C(=O)CNC(=O)[C@H](Cc2ccc(C(=O)O)cc2)NC(=O)[C@H](Cc2ccncc2)NC(=O)[C@H](Cc2ccc(-c3ccc(C(=O)O)cc3)cc2)NC(=O)[C@H]2C[C@@H](Cc3ccccc3)CN2C(=O)CNC(=O)[C@H](CCN)NC(=O)[C@H](CCC(N)=O)NC(=O)[C@H](Cc2cncnc2)NC(=O)C(C)(C)NC(=O)[C@H](Cc2c[nH]c3ccccc23)NC(=O)[C@H](CCC(=O)O)NC(=O)C(C)(C)NC1=O) [SEQ ID NO: 31]
